Laboratory results taken from patent US20090081219A1 (Genmab, published 2009).
Substitutions are numbered along the chain they refer to.

T1: recombinant human CD25 (rhCD25), NS/0-expressed recombinant protein from R&D Systems (cat#223-2A/CF) (human, UniProt P01589 22-213, limits assumed)
T1 construct: Coated on ELISA plates, and amine-coupled to a CM-5 chip for SPR; also called hrCD25; soluble CD25
T1 sequence (looked up): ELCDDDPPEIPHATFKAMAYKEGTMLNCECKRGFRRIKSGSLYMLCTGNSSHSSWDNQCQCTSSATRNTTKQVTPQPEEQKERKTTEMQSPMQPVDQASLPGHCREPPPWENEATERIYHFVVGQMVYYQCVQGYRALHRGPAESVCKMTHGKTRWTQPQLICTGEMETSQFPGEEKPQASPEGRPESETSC

B1: human monoclonal antibody AB1 (antibody, human IgG1, V domains shown)
VH: QVQLVQSGAEVKKPGSSVKVSCKASGGTFSRYPINWVRQAPGQGLEWMGRIIPILGIADYAQRFQGRVTITADKSTNTAYMELSSLRSEDTAVYYCARRDWGDYWGQGTLVTVSS
VL: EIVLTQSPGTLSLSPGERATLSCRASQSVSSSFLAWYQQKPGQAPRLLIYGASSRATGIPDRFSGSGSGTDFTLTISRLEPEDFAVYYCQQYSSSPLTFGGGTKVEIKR
notes: Human IgG1,kappa from a hybridoma (HuMAb mouse)
B2: human monoclonal antibody AB7 (antibody, V domains shown)
VH: B1 VH with P33A, G56D, R63K, G66D, R99K, G102F, Y104P
VL: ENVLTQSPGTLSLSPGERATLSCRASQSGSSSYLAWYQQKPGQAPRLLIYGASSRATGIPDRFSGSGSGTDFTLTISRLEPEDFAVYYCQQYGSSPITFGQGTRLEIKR
notes: as for B1
B3: human monoclonal antibody AB12 (antibody, V domains shown)
VH: B1 VH with P33I, I57V, A58E, D59N, R63K, N77S, R99K, G102F
VL: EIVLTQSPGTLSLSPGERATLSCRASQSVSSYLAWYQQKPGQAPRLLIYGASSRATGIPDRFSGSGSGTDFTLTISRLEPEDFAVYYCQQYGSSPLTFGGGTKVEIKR
notes: Human IgG1,kappa from a hybridoma (HuMAb mouse); also called AB12-FITC; FITC-labeled AB12
B4: human monoclonal antibody AB11 (antibody, human IgG1, V domains shown)
VH: B1 VH with S75F
VL: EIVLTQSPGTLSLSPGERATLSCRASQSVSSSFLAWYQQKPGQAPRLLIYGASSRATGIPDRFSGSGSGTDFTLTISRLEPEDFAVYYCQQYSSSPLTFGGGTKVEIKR
notes: as for B1

How the values were obtained:
[1] = target: T1, recombinant human CD25 (rhCD25), …; assay: competition ELISA on coated rhCD25 (100 ng/ml); antibody supernatant added 10 min before rIL-2-biotin (50 ng/ml); streptavidin-poly-HRP/ABTS, OD405; blocked ligand: biotinylated IL-2
Protocol: After washing (3×) the plates with PBST, 100 μl of sample antibody (concentration range: 10, 33, and 100 ng/ml) was added. […] After washing the plates 3× (in PBST), plates were incubated with streptavidin-poly-HRP (dilute 1:10,000 from stock) in PBS, and 100 μl was added to each well (1 hour, RT). After washing the plates (3× in PBST), 10 mg ABTS (Roche) per 10 ml ABTS buffer (Roche) was made and 100 μl added to each well.

[2] = target: T1, recombinant human CD25 (rhCD25), …; assay: SPR, BIAcore 3000, 25 C; rhCD25 amine-coupled to CM-5 chip at low density, antibody as analyte, 1:1 Langmuir model
Protocol: Affinity analyses were assessed by monitoring changes in surface plasmon resonance using a BIAcore 3000 instrument. A BIAcore 3000 and BIAcore 3000 software control (BIAcore, Uppsala, Sweden, lot#BR-1100-43) was used. […] After blocking the residual binding sites of the activated sensor chip using ethanol-amine-HCl, a kinetic analysis was performed at 25° C. […] The results were visualized using a BIAcore 3000 (Bio-tek Instruments) and analyzed using the BIAevaluation Software 3.1 (BIAcore, Uppsala, Sweden) and Languir binding 1:1 was used as pre-fixed model.

| Binder | binding result [1] | Kd [2] [nM] |
| --- | --- | --- |
| B1 | binds | – |
| B2 | binds | – |
| B3 | – | 0.0474 |
| B4 | binds | – |
